Reference: paper PMC2213614 (The Journal of Cell Biology, 2008)

Target: T1, GST-[change] (aa 1–320) (S. cerevisiae, UniProt P33332 1-320)
T1 sequence: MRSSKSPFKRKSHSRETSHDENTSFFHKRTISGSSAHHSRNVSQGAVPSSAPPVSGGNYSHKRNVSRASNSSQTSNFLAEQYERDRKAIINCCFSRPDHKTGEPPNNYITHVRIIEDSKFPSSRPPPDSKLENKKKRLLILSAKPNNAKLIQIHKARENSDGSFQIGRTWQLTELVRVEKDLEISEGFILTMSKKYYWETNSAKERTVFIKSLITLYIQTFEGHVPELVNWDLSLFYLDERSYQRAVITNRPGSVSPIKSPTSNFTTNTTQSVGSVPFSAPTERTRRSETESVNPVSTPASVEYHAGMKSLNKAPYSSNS
Assay: pull-down

B1: Hisx6-Cdc42 (natural protein)
chain: not shown
B1: binds.
